Molecular target: T1, His-Edc3-mCherry (S. cerevisiae, UniProt P39998 1-551)
T1 construct: Edc3, P-body protein of S. cerevisiae with Lsm, FDF and YjeF-N domains; full length; also called full-length Edc3; purified Edc3; source: E. coli BL21, purified (Ni-NTA agarose, batch; RNase A added during purification); not shown: His, N-terminal, kept; mCherry, C-terminal, kept
T1 sequence (looked up): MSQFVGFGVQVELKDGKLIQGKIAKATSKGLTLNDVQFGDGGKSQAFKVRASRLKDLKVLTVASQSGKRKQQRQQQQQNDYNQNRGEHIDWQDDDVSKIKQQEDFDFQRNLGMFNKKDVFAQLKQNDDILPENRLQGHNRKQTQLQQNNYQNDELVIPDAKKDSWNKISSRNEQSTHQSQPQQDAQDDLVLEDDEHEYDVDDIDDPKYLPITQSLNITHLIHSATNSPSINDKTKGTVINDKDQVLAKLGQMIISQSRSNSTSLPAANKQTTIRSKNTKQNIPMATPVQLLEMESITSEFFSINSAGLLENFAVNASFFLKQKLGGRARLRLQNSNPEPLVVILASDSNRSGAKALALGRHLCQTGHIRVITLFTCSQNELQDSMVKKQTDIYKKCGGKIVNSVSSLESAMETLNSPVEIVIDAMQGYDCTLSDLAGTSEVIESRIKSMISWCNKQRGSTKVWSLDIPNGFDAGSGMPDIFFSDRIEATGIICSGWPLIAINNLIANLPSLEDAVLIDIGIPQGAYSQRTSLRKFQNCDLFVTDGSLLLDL
Assay: pull-down; RFP magnetic agarose beads (Chromotek) capture Edc3-mCherry; 100 pmol of each purified protein; 4 °C, 2 h; 50 mM HEPES pH 7, 100 mM NaCl, 1 mM DTT, 2 mM MnCl2, 2 mM MgCl2, 1% Triton-X100, 10% glycerol, 0.25 mg/mL RNase A; western blot
Conditions: both partners purified

B1: His-Sbp1-FLAG (natural protein, S. cerevisiae, UniProt P10080 1-294, looked up)
chain: MSAEIEEATNAVNNLSINDSEQQPRAPTHKTVIDPEDTIFIGNVAHECTEDDLKQLFVEEFGDEVSVEIPIKEHTDGHIPASKHALVKFPTKIDFDNIKENYDTKVVKDREIHIKRARTPGQMQRGGFRGRGGFRGRGGFRGGFRGGYRGGFRGRGNFRGRGGARGGFNGQKREKIPLDQMERSKDTLYINNVPFKATKEEVAEFFGTDADSISLPMRKMRDQHTGRIFTSDSANRGMAFVTFSGENVDIEAKAEEFKGKVFGDRELTVDVAVIRPENDEEEIEQETGSEEKQE
notes: Sbp1, RGG-motif containing translation repressor of S. cerevisiae; wild type; also called wild-type Sbp1; purified Sbp1; source: E. coli BL21, purified (Ni-NTA agarose, batch; RNase A added during purification); not shown: His, N-terminal, kept; FLAG, C-terminal, kept
B1: binds.

Source: article PMC9019020, “Low complexity RGG-motif sequence is required for Processing body (P-body) disassembly” (Nature Communications, 2022)
